Assay results: US8883410B2, “Method for determining the stability of organic methyleneamines in the presence of semicarbazide-sensitive amine oxidase” (Sanofi, priority 2007, dated 2014)

Target: T1, recombinant human SSAO (Homo sapiens, UniProt Q16853)
T1 construct: expressed in transfected cells; cell lysate
T1 sequence (Q16853 1-763): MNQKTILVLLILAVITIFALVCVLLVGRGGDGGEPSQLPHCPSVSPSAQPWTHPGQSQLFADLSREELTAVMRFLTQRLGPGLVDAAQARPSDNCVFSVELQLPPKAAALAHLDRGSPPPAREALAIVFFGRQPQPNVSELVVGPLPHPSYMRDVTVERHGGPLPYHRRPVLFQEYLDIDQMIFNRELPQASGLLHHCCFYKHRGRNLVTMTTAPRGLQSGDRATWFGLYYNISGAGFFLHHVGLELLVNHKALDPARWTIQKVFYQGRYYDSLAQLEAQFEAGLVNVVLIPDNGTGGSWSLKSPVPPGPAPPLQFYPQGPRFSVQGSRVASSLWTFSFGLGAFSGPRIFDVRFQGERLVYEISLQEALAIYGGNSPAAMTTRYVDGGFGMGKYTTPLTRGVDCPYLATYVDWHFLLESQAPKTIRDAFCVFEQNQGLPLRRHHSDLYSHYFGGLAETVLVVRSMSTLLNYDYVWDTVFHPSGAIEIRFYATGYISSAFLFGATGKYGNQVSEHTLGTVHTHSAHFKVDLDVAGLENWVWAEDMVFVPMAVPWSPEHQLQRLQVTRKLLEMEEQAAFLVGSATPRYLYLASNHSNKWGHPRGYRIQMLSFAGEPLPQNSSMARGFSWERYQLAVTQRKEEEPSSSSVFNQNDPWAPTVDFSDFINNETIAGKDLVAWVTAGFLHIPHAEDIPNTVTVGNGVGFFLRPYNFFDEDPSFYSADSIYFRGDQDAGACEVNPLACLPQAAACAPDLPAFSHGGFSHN
Assay: Amplex Red assay of specific activity of recombinant human SSAO
Assay type: biochemical
From the text: The Amplex Red assay (a commercially available assay), was used initially to measure the specific activity of the recombinant human SSAO. Amplex Red is a colorless and nonfluorescent derivative of dihydroresorufin. In the presence of amine oxidases and SSAO, the Amplex Red reacts with H2O2 to produce the highly fluorescent product, resorufin. Resorufin has an excitation maximum at 563 nm and emission maximum at 587 nm and the assay can be quantified by reading the microtitre plate at 587 nm. The specific activity of recombinant SSAO was determined to be 280 pmol/min/mg protein and this was determined to be equivalent to the specific activity of SSAO found in human lung tissue. For subsequent assays to profile compounds in the LC/MS/MS assay, recombinant human SSAO (rhSSAO) was used at this defined specific activity.

B1: recombinant SSAO: recombinant human SSAO, full-length untagged, in CHO Flp-In cell lysate (protein, UniProt Q16853 1-763, looked up)
chain: MNQKTILVLLILAVITIFALVCVLLVGRGGDGGEPSQLPHCPSVSPSAQPWTHPGQSQLFADLSREELTAVMRFLTQRLGPGLVDAAQARPSDNCVFSVELQLPPKAAALAHLDRGSPPPAREALAIVFFGRQPQPNVSELVVGPLPHPSYMRDVTVERHGGPLPYHRRPVLFQEYLDIDQMIFNRELPQASGLLHHCCFYKHRGRNLVTMTTAPRGLQSGDRATWFGLYYNISGAGFFLHHVGLELLVNHKALDPARWTIQKVFYQGRYYDSLAQLEAQFEAGLVNVVLIPDNGTGGSWSLKSPVPPGPAPPLQFYPQGPRFSVQGSRVASSLWTFSFGLGAFSGPRIFDVRFQGERLVYEISLQEALAIYGGNSPAAMTTRYVDGGFGMGKYTTPLTRGVDCPYLATYVDWHFLLESQAPKTIRDAFCVFEQNQGLPLRRHHSDLYSHYFGGLAETVLVVRSMSTLLNYDYVWDTVFHPSGAIEIRFYATGYISSAFLFGATGKYGNQVSEHTLGTVHTHSAHFKVDLDVAGLENWVWAEDMVFVPMAVPWSPEHQLQRLQVTRKLLEMEEQAAFLVGSATPRYLYLASNHSNKWGHPRGYRIQMLSFAGEPLPQNSSMARGFSWERYQLAVTQRKEEEPSSSSVFNQNDPWAPTVDFSDFINNETIAGKDLVAWVTAGFLHIPHAEDIPNTVTVGNGVGFFLRPYNFFDEDPSFYSADSIYFRGDQDAGACEVNPLACLPQAAACAPDLPAFSHGGFSHN
modifications: full-length
notes: recombinant human SSAO, full-length untagged, in CHO Flp-In cell lysate
- specific activity of recombinant SSAO: 280 pmol/min/mg protein
